Experimental data published in EP1595946A2 (Sugen, Inc., dated 2005).

Molecular target: T1, SULU1-coiled-coil2 GST fusion (Construct 1; amino acids 752-898) (human, UniProt Q5R4F3 752-898 (Pongo abelii entry))
T1 construct: Immobilised bait in T7 phage display; also called SULU1 ccl; not shown: glutathione S-transferase (GST) of vector pGEX-4T; baits were made as C-terminal fusions to GST, expressed in E. coli
T1 sequence: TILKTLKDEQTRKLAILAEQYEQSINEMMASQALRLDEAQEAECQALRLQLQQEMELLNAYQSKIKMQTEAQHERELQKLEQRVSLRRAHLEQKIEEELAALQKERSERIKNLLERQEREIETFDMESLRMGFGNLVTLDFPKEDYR
Test: T7 phage display, H441 cDNA library, GST-fused bait; interactor listed

B1: GEK2 coiled-coil domain displayed on T7 phage (677-820 of SEQ #26) (other)
chain: KESMKQKMEEHTQKKQLLDRDFVAKQKEDLELAMKRLTTDNRREICDKERECLMKKQELLRDREAALWEMEEHQLQERHQLVKQQLKDQYFLQRHELLRKHEKEREQMQRYNQRMIEQLKVRQQQEKARLPKIQRSEGKTRMAM
notes: also called GEK2 cc dom; GEK2 CC1; not shown: T7 phage coat protein of vector T7Select1-1b to which the cDNA fragment is fused
binding result: binds
